How the values were obtained:
[1] = target: T1, human CD28 on CHO cells (parental cell line CHO-k1 ATCC #CCL-61, modified to stably overexpress human CD28) (human, UniProt P10747 19-220); experiment: binding to CHO cells expressing human CD28 (by the table's title)
T1 construct: also called hu CD28; CHO-hCD28

[2] = target: human FAP on 3T3-huFAP cells (clone 19) (human, UniProt Q12884 1-760); experiment: flow cytometry on 3T3-huFAP cells, FAP-CD28 1+1 constructs, MFI (PE)
[3] = target: T2, biotinylated huCD28-Fc (dimeric CD28-Fc construct with a monovalent biotinylated avi-tag) (human, UniProt P10747 19-152, biotinylated at the C-terminal avi tag); experiment: SPR, ProteOn XPR36, huCD28-Fc on NLC chip, bispecific as analyte
T2 construct: not shown: hum IgG1 Fc fragment with hole and PG-LALA mutations; hum IgG1 Fc fragment with knob and PG-LALA mutations

[4] = target: T1, human CD28 on CHO cells (parental cell …); experiment: flow cytometry on CHO cells stably expressing human CD28, monovalent one-armed IgG from supernatant, MFI (PE)

Row | Kd [1] | binding result [2] | Kd [3] | koff [3] | kon [3] | binding result [4] | Binder
1 | 5.3 nM | binds | 5.3 nM | 0.000994 s⁻¹ | 187000 M⁻¹ s⁻¹ |  | FAP (4B9) - CD28 (CD28(SA)_Variant 16) 1+1 (bispecific antibody, human IgG1, kappa, L234A L235A, huIgG1 PG-LALA CrossFab 1+1; also called P1AE3135) heavy 1: EIVLTQSPGTLSLSPGERATLSCRASQSVTSSYLAWYQQKPGQAPRLLINVGSRRATGIPDRFSGSGSGTDFTLTISRLEPEDFAVYYCQQGIMLPPTFGQGTKVEIKSSASTKGPSVFPLAPSSKSTSGGTAALGCLVKDYFPEPVTVSWNSGALTSGVHTFPAVLQSSGLYSLSSVVTVPSSSLGTQTYICNVNHKPSNTKVDKKVEPKSCDKTHTCPPCPAPEAAGGPSVFLFPPKPKDTLMISRTPEVTCVVVDVSHEDPEVKFNWYVDGVEVHNAKTKPREEQYNSTYRVVSVLTVLHQDWLNGKEYKCKVSNKALGAPIEKTISKAKGQPREPQVCTLPPSRDELTKNQVSLSCAVKGFYPSDIAVEWESNGQPENNYKTTPPVLDSDGSFFLVSKLTVDKSRWQQGNVFSCSVMHEALHNHYTQKSLSLSP light 1: EVQLLESGGGLVQPGGSLRLSCAASGFTFSSYAMSWVRQAPGKGLEWVSAIIGSGASTYYADSVKGRFTISRDNSKNTLYLQMNSLRAEDTAVYYCAKGWFGGFNYWGQGTLVTVSSASVAAPSVFIFPPSDEQLKSGTASVVCLLNNFYPREAKVQWKVDNALQSGNSQESVTEQDSKDSTYSLSSTLTLSKADYEKHKVYACEVTHQGLSSPVTKSFNRGEC heavy 2: not shown light 2: not shown
2 | 23.8 nM | binds | 23.8 nM | 0.00521 s⁻¹ | 219000 M⁻¹ s⁻¹ |  | FAP (4B9)-CD28 (CD28(SA)_Variant 8) 1+1 (bispecific antibody, human IgG1, kappa, L234A L235A, huIgG1 PG-LALA CrossFab 1+1; also called P1AE3131) heavy 1: EIVLTQSPGTLSLSPGERATLSCRASQSVTSSYLAWYQQKPGQAPRLLINVGSRRATGIPDRFSGSGSGTDFTLTISRLEPEDFAVYYCQQGIMLPPTFGQGTKVEIKSSASTKGPSVFPLAPSSKSTSGGTAALGCLVKDYFPEPVTVSWNSGALTSGVHTFPAVLQSSGLYSLSSVVTVPSSSLGTQTYICNVNHKPSNTKVDKKVEPKSCDKTHTCPPCPAPEAAGGPSVFLFPPKPKDTLMISRTPEVTCVVVDVSHEDPEVKFNWYVDGVEVHNAKTKPREEQYNSTYRVVSVLTVLHQDWLNGKEYKCKVSNKALGAPIEKTISKAKGQPREPQVCTLPPSRDELTKNQVSLSCAVKGFYPSDIAVEWESNGQPENNYKTTPPVLDSDGSFFLVSKLTVDKSRWQQGNVFSCSVMHEALHNHYTQKSLSLSP light 1: EVQLLESGGGLVQPGGSLRLSCAASGFTFSSYAMSWVRQAPGKGLEWVSAIIGSGASTYYADSVKGRFTISRDNSKNTLYLQMNSLRAEDTAVYYCAKGWFGGFNYWGQGTLVTVSSASVAAPSVFIFPPSDEQLKSGTASVVCLLNNFYPREAKVQWKVDNALQSGNSQESVTEQDSKDSTYSLSSTLTLSKADYEKHKVYACEVTHQGLSSPVTKSFNRGEC heavy 2: not shown light 2: not shown
3 | 7.1 nM | binds | 7.1 nM | 0.00184 s⁻¹ | 259000 M⁻¹ s⁻¹ |  | FAP (4B9) - CD28 (CD28(SA)_Variant 15) 1+1 (bispecific antibody, human IgG1, kappa, L234A L235A, huIgG1 PG-LALA CrossFab 1+1; also called P1AE3134) heavy 1: EIVLTQSPGTLSLSPGERATLSCRASQSVTSSYLAWYQQKPGQAPRLLINVGSRRATGIPDRFSGSGSGTDFTLTISRLEPEDFAVYYCQQGIMLPPTFGQGTKVEIKSSASTKGPSVFPLAPSSKSTSGGTAALGCLVKDYFPEPVTVSWNSGALTSGVHTFPAVLQSSGLYSLSSVVTVPSSSLGTQTYICNVNHKPSNTKVDKKVEPKSCDKTHTCPPCPAPEAAGGPSVFLFPPKPKDTLMISRTPEVTCVVVDVSHEDPEVKFNWYVDGVEVHNAKTKPREEQYNSTYRVVSVLTVLHQDWLNGKEYKCKVSNKALGAPIEKTISKAKGQPREPQVCTLPPSRDELTKNQVSLSCAVKGFYPSDIAVEWESNGQPENNYKTTPPVLDSDGSFFLVSKLTVDKSRWQQGNVFSCSVMHEALHNHYTQKSLSLSP light 1: EVQLLESGGGLVQPGGSLRLSCAASGFTFSSYAMSWVRQAPGKGLEWVSAIIGSGASTYYADSVKGRFTISRDNSKNTLYLQMNSLRAEDTAVYYCAKGWFGGFNYWGQGTLVTVSSASVAAPSVFIFPPSDEQLKSGTASVVCLLNNFYPREAKVQWKVDNALQSGNSQESVTEQDSKDSTYSLSSTLTLSKADYEKHKVYACEVTHQGLSSPVTKSFNRGEC heavy 2: not shown light 2: not shown
4 | 12.5 nM | binds | 12.5 nM | 0.00287 s⁻¹ | 230000 M⁻¹ s⁻¹ |  | FAP (4B9) - CD28 (CD28(SA)_Variant 11) 1+1 (bispecific antibody, human IgG1, kappa, L234A L235A, huIgG1 PG-LALA CrossFab 1+1; also called P1AE3132) heavy 1: EIVLTQSPGTLSLSPGERATLSCRASQSVTSSYLAWYQQKPGQAPRLLINVGSRRATGIPDRFSGSGSGTDFTLTISRLEPEDFAVYYCQQGIMLPPTFGQGTKVEIKSSASTKGPSVFPLAPSSKSTSGGTAALGCLVKDYFPEPVTVSWNSGALTSGVHTFPAVLQSSGLYSLSSVVTVPSSSLGTQTYICNVNHKPSNTKVDKKVEPKSCDKTHTCPPCPAPEAAGGPSVFLFPPKPKDTLMISRTPEVTCVVVDVSHEDPEVKFNWYVDGVEVHNAKTKPREEQYNSTYRVVSVLTVLHQDWLNGKEYKCKVSNKALGAPIEKTISKAKGQPREPQVCTLPPSRDELTKNQVSLSCAVKGFYPSDIAVEWESNGQPENNYKTTPPVLDSDGSFFLVSKLTVDKSRWQQGNVFSCSVMHEALHNHYTQKSLSLSP light 1: EVQLLESGGGLVQPGGSLRLSCAASGFTFSSYAMSWVRQAPGKGLEWVSAIIGSGASTYYADSVKGRFTISRDNSKNTLYLQMNSLRAEDTAVYYCAKGWFGGFNYWGQGTLVTVSSASVAAPSVFIFPPSDEQLKSGTASVVCLLNNFYPREAKVQWKVDNALQSGNSQESVTEQDSKDSTYSLSSTLTLSKADYEKHKVYACEVTHQGLSSPVTKSFNRGEC heavy 2: not shown light 2: not shown
5 | 3.7 nM | binds | 3.7 nM | 0.00125 s⁻¹ | 338000 M⁻¹ s⁻¹ |  | FAP (4B9) - CD28 (CD28(SA)_Variant 17) 1+1 (bispecific antibody, human IgG1, kappa, L234A L235A, huIgG1 PG-LALA CrossFab 1+1; also called P1AE3136) heavy 1: EIVLTQSPGTLSLSPGERATLSCRASQSVTSSYLAWYQQKPGQAPRLLINVGSRRATGIPDRFSGSGSGTDFTLTISRLEPEDFAVYYCQQGIMLPPTFGQGTKVEIKSSASTKGPSVFPLAPSSKSTSGGTAALGCLVKDYFPEPVTVSWNSGALTSGVHTFPAVLQSSGLYSLSSVVTVPSSSLGTQTYICNVNHKPSNTKVDKKVEPKSCDKTHTCPPCPAPEAAGGPSVFLFPPKPKDTLMISRTPEVTCVVVDVSHEDPEVKFNWYVDGVEVHNAKTKPREEQYNSTYRVVSVLTVLHQDWLNGKEYKCKVSNKALGAPIEKTISKAKGQPREPQVCTLPPSRDELTKNQVSLSCAVKGFYPSDIAVEWESNGQPENNYKTTPPVLDSDGSFFLVSKLTVDKSRWQQGNVFSCSVMHEALHNHYTQKSLSLSP light 1: EVQLLESGGGLVQPGGSLRLSCAASGFTFSSYAMSWVRQAPGKGLEWVSAIIGSGASTYYADSVKGRFTISRDNSKNTLYLQMNSLRAEDTAVYYCAKGWFGGFNYWGQGTLVTVSSASVAAPSVFIFPPSDEQLKSGTASVVCLLNNFYPREAKVQWKVDNALQSGNSQESVTEQDSKDSTYSLSSTLTLSKADYEKHKVYACEVTHQGLSSPVTKSFNRGEC heavy 2: not shown light 2: not shown
6 |  |  |  |  |  | binds | CD28(SA)_variant_30 (antibody, human IgG1, kappa, L234A L235A, monovalent one-armed huIgG1 PG-LALA; from supernatant; also called P1AE3086) heavy: not shown light: DIQMTQSPSSLSASVGDRVTITCRASQNIYVWLNWYQQKPGKAPKLLIYKASNLYSGVPSRFSGSRSGTDFTLTISSLQPEDFATYYCQQGQTYPYTFGQGTKLEIKRTVAAPSVFIFPPSDRKLKSGTASVVCLLNNFYPREAKVQWKVDNALQSGNSQESVTEQDSKDSTYSLSSTLTLSKADYEKHKVYACEVTHQGLSSPVTKSFNRGEC DKTHTCPPCPAPEAAGGPSVFLFPPKPKDTLMISRTPEVTCVVVDVSHEDPEVKFNWYVDGVEVHNAKTKPREEQYNSTYRVVSVLTVLHQDWLNGKEYKCKVSNKALGAPIEKTISKAKGQPREPQVCTLPPSRDELTKNQVSLSCAVKGFYPSDIAVEWESNGQPENNYKTTPPVLDSDGSFFLVSKLTVDKSRWQQGNVFSCSVMHEALHNRFTQKSLSLSP
7 |  |  |  |  |  | binds | CD28(SA)_variant_29 (antibody, human IgG1, kappa, L234A L235A, monovalent one-armed huIgG1 PG-LALA; from supernatant; also called P1AE3085) heavy: not shown light: not shown DKTHTCPPCPAPEAAGGPSVFLFPPKPKDTLMISRTPEVTCVVVDVSHEDPEVKFNWYVDGVEVHNAKTKPREEQYNSTYRVVSVLTVLHQDWLNGKEYKCKVSNKALGAPIEKTISKAKGQPREPQVCTLPPSRDELTKNQVSLSCAVKGFYPSDIAVEWESNGQPENNYKTTPPVLDSDGSFFLVSKLTVDKSRWQQGNVFSCSVMHEALHNRFTQKSLSLSP
8 |  |  |  |  |  | binds | CD28(SA)_variant_26 (antibody, human IgG1, kappa, L234A L235A, monovalent one-armed huIgG1 PG-LALA; from supernatant; also called P1AE3082) heavy: not shown light: not shown DKTHTCPPCPAPEAAGGPSVFLFPPKPKDTLMISRTPEVTCVVVDVSHEDPEVKFNWYVDGVEVHNAKTKPREEQYNSTYRVVSVLTVLHQDWLNGKEYKCKVSNKALGAPIEKTISKAKGQPREPQVCTLPPSRDELTKNQVSLSCAVKGFYPSDIAVEWESNGQPENNYKTTPPVLDSDGSFFLVSKLTVDKSRWQQGNVFSCSVMHEALHNRFTQKSLSLSP
9 |  |  |  |  |  | binds | CD28(SA)_variant_27 (antibody, human IgG1, kappa, L234A L235A, monovalent one-armed huIgG1 PG-LALA; from supernatant; also called P1AE3083) heavy: not shown light: not shown DKTHTCPPCPAPEAAGGPSVFLFPPKPKDTLMISRTPEVTCVVVDVSHEDPEVKFNWYVDGVEVHNAKTKPREEQYNSTYRVVSVLTVLHQDWLNGKEYKCKVSNKALGAPIEKTISKAKGQPREPQVCTLPPSRDELTKNQVSLSCAVKGFYPSDIAVEWESNGQPENNYKTTPPVLDSDGSFFLVSKLTVDKSRWQQGNVFSCSVMHEALHNRFTQKSLSLSP
10 |  |  |  |  |  | binds | CD28(SA)_variant_31 (antibody, human IgG1, kappa, L234A L235A, monovalent one-armed huIgG1 PG-LALA; from supernatant; also called P1AE3087) heavy: not shown light: not shown DKTHTCPPCPAPEAAGGPSVFLFPPKPKDTLMISRTPEVTCVVVDVSHEDPEVKFNWYVDGVEVHNAKTKPREEQYNSTYRVVSVLTVLHQDWLNGKEYKCKVSNKALGAPIEKTISKAKGQPREPQVCTLPPSRDELTKNQVSLSCAVKGFYPSDIAVEWESNGQPENNYKTTPPVLDSDGSFFLVSKLTVDKSRWQQGNVFSCSVMHEALHNRFTQKSLSLSP
11 |  |  |  |  |  | binds | CD28(SA)_variant_25 (antibody, human IgG1, kappa, L234A L235A, monovalent one-armed huIgG1 PG-LALA; from supernatant; also called P1AE3081) heavy: not shown light: not shown DKTHTCPPCPAPEAAGGPSVFLFPPKPKDTLMISRTPEVTCVVVDVSHEDPEVKFNWYVDGVEVHNAKTKPREEQYNSTYRVVSVLTVLHQDWLNGKEYKCKVSNKALGAPIEKTISKAKGQPREPQVCTLPPSRDELTKNQVSLSCAVKGFYPSDIAVEWESNGQPENNYKTTPPVLDSDGSFFLVSKLTVDKSRWQQGNVFSCSVMHEALHNRFTQKSLSLSP
